The text below walks through data of patent US20200317817A1 (XOMA US, published 2020).

The target of experiment [1] is T1, mouse PTH1R overexpressed on CHO cells (mouse, UniProt P41593 27-591).
T1 construct: whole, on cells; also called CHO mouse PTH1R; CHO Mouse PTHR
T1 sequence (looked up): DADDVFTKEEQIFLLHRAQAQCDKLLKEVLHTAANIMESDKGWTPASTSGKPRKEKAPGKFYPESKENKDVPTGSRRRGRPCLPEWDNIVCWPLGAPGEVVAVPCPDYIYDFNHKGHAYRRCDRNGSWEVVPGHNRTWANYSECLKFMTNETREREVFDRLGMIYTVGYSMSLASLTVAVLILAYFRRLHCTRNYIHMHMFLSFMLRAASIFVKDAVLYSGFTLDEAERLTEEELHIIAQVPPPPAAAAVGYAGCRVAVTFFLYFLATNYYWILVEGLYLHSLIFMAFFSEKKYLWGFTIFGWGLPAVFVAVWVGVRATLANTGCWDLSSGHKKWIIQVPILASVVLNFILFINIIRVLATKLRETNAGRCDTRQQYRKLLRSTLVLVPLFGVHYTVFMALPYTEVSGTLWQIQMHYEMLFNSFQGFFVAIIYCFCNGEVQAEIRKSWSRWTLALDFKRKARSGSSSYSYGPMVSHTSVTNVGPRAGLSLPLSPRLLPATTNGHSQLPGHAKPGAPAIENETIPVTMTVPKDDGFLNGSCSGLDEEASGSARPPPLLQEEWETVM
In words: flow cytometry on CHO cells, with 3 uM PTHrP as competitor. Here is the method:
(§1) To characterize antibody binding to PTH1R, cells were labeled with either CellTrace™ CFSE or CellTrace™ Violet. Unlabeled CHOK1 parent, CHO human PTH1R labeled with CellTrace™CFSE, and CHO mouse PTH1R labeled with CellTrace™Violet were pooled together and stained with increasing concentrations of antibody. Antibodies were incubated for 24 hr at 4° C. followed by two washes with FACS Buffer (0.5% BSA, 0.1% NaN3 in DPBS). Cells were then incubated with Allophycocyanin (APC) AffiniPure F(ab′)₂ Fragment Goat Anti-Human IgG (H+L) (Jackson ImmunoResearch, West Grove, Pa.) for 20 minutes at 4° C. Followed by two washes, cells were resuspended in FACS Buffer. Samples were acquired using BD Cytometer (BD Biosciences, San Jose, Calif.) and data were analyzed using FlowJo (FlowJo, LLC, Ashland, Oreg.) and Prism (GraphPad Software, La Jolla, Calif.).

Experiment [2] deals with T2, human PTH1R overexpressed on CHO cells (human, UniProt Q03431 27-593).
T2 construct: whole, on cells; also called CHO human PTH1R; CHO Human PTHR
T2 sequence (looked up): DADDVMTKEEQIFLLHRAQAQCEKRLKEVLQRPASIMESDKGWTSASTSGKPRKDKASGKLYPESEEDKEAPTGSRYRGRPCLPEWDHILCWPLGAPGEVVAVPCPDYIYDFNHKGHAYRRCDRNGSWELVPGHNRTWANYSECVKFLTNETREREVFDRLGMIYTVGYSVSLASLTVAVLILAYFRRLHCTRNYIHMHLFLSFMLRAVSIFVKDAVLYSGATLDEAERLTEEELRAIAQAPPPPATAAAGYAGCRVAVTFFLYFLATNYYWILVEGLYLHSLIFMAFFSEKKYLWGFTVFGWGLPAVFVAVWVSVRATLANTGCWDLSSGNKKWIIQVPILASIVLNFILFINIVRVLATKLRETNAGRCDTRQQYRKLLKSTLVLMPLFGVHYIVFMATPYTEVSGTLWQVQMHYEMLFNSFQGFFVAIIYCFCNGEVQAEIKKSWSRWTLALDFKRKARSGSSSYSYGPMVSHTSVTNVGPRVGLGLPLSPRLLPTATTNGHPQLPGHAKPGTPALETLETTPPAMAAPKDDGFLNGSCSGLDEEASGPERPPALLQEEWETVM
The experiment is described as above. Here is the method:
as §1

For experiment [3], the target named is T1, mouse PTH1R overexpressed on CHO cells. In words: flow cytometry on CHO cells, with 1 uM PTH as competitor. Here is the method:
as §1

Experiment [4] deals with T2, human PTH1R overexpressed on CHO cells. The experiment is described as above. Here is the method:
as §1

Experiment [5] addresses T3, recombinant N-terminal extracellular domain of the human PTH1R receptor (human, UniProt Q03431 27-188, limits assumed).
T3 construct: domain: N-terminal extracellular domain; Bought reagent; also called N-ECD PTH1R; PTH1R N-terminal ECD
T3 sequence (looked up): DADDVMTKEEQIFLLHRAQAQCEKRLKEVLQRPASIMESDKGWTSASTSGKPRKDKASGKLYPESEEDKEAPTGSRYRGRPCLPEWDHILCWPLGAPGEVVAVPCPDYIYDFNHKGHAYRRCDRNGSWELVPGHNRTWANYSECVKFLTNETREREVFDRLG
The experiment in a line: SPR, IgG captured, ECD injected. Put shortly: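 Antibodies (0.5 μg/mL) captured on anti-human IgG-Fc chip to 100–200 RU in HBS-EP+ with 2.5 mg/mL BSA; receptor ECD injected at 30 μL/minute for 240 s, 360 s dissociation, 3M MgCl regeneration. Double-referenced data fit globally for ka and kd; KD=kd/kₐ.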
In general terms: In SPR one partner is held on a chip, and binding of the other changes the refractive index at the surface.

The target of experiment [6] is T1, mouse PTH1R overexpressed on CHO cells. In words: flow cytometry on CHO cells, antibody alone. Here is the method: as §1
Experiment [7] deals with T2, human PTH1R overexpressed on CHO cells. The experiment in a line: flow cytometry on CHO cells, antibody alone. Here is the method:
as §1
(Flow cytometry measures light scatter and fluorescence of single cells or particles in a stream.)

The target of experiment [8] is T1, mouse PTH1R overexpressed on CHO cells. In words: flow cytometry on CHO cells, 24 hr at 4 C. Here is the method:
as §1

The EC50 is the concentration that produces a half-maximal response. A low value points to higher potency in that assay. A word on the Kd: it is the concentration at which binding is half-saturated. What is called koff is the rate constant with which the complex falls apart. In general, kon refers to a measure of how fast the partners come together.

B1: XPA.85.341 (antibody, V domains shown)
VH: EVQLVETGGGVVRPGGSLRLSCAASGFTFSSSAMSWVRQTPGKELQWVSAITPGGEGTYYADVVKGRFTISRDNSKDTLYLQMDSLRAEDTAVYYCARDLYGSYGDAFDIWGQGTLVTVSS
VL: SYELTQPSSVSVSPGQTASITCSGDKLGEKYASWYQQKPGQSPVLVMFEDTKRPSGIPERFSGSNSGNTATLTISGTQAEDEADYYCQAWDSSWVFGGGTQLTVL
notes: Light-chain-shuffled variant of XPA.85.017
Turning to B1, the EC50 in experiment [1] amounted to 14.5 nM; in experiment [2] it was 1.11 nM; in experiment [3], 0.778 nM; in experiment [4], 5.39 nM; in experiment [6], 0.337 nM; in experiment [7] it was 0.196 nM. Further, it took 0.343 nM to reach a half-maximal effect in experiment [8] (EC50). The Kd in experiment [5] was 0.31 nM. In experiment [5], the koff amounted to 0.0006 s⁻¹. The kon in experiment [5] is 1.9e+06 M⁻¹ s⁻¹.

B2: XPA.85.339 (antibody, V domains shown)
VH: B1 VH
VL: SYELTQPPSVSVAPGQTATITCSGDRLGDKFISWYQQKPGQSPLLVIFEDNERPSRIPERFSGSNSGNSATLTISGTQAVDEADYYCQAWDSSWVFGGGTQLTVL
notes: as for B1
B2: the EC50 in experiment [1] turned out to be 18.7 nM; in experiment [2] it was 0.479 nM; in experiment [3], 0.327 nM; in experiment [4], 2.98 nM; in experiment [6], 0.258 nM; in experiment [7], 0.0984 nM. The EC50 in experiment [8] turned out to be 0.234 nM. The Kd in experiment [5] was 0.22 nM. In addition, the koff in experiment [5] is 0.00065 s⁻¹. Also, in experiment [5], the kon came out at 2.9e+06 M⁻¹ s⁻¹.

B3: XPA.85.287 (antibody, V domains shown)
VH: B1 VH
VL: SYVLTQPPSVSVAPGQTARITCSGDKLGDRYVSWYQQKPGQSPVLVMFEDTGRPAGIPERFSGSNSGNTATLTISGTQAEDEADYYCQAWGTSWVFGGGTQLTVL
notes: also called Ab287
As for B3, the EC50 in experiment [1] came out at 1.51 nM; in experiment [2], 0.304 nM; in experiment [3] it was 0.206 nM; in experiment [4], 1.86 nM; in experiment [6], 0.281 nM; in experiment [7], 0.0909 nM. In addition, the EC50 in experiment [8] was determined as 0.216 nM. For the same molecule, the Kd in experiment [5] was 0.099 nM. Besides, in experiment [5], the koff came out at 0.00036 s⁻¹. Also, the kon in experiment [5] turned out to be 3.6e+06 M⁻¹ s⁻¹.

B4: XPA.85.329 (antibody, V domains shown)
VH: QMQLVQSGAEVKKPGSSVKVSCKASGGTFSSYAISWVRQAPGQGLEWMGGIIPIFGTANYAQKFQGRVTITADESTSTAYMELSSLRSEDTAVYYCARGYVVARLWGQGTLVTVSS
VL: DIVMTQTPLSLSVTPGQPASISCKSSQSLLHIDGLTYLYWYLQKPGQPPQLLIYEVSHRFSGVSDKFSGSGSGTDFTLTISRVEAEDVGVYYCMQSLHLPITFGQGTRLEIK
notes: IgG; also called Ab329; XPA.329
Regarding B4, in experiment [5], the Kd came to 0.22 nM, the koff worked out at 7.6e-05 s⁻¹ and the kon is 340000 M⁻¹ s⁻¹.
